For assay [1], the target named is T1, AAV6 (adeno-associated virus serotype 6 (AAV6)).
T1 construct: also called adeno-associated virus serotype 6
Put plainly: 1 mL column of A4-014 coupled to agarose gel (3.12 mg/g gel); AAV capsid particles bound.

For assay [2], the target named is T2, AAV8 (adeno-associated virus serotype 8 (AAV8)).
T2 construct: also called adeno-associated virus serotype 8; AAV8 antigen
The assay is described as above.

Assay [3] addresses T3, AAV5 (adeno-associated virus serotype 5 (AAV5)).
T3 construct: also called adeno-associated virus serotype 5; AAV5 antigen
Described as above.

For assay [4], the target named is T4, AAV9 (adeno-associated virus serotype 9 (AAV9)).
T4 construct: also called adeno-associated virus serotype 9; AAV9 antigen
Described as above.

Assay [5] has as its target T1, AAV6. In words: 1 mL column of A4-024 coupled to agarose gel (6.36 mg/g gel); AAV capsid particles bound.
For assay [6], the target named is T2, AAV8. The assay is described as above.
Assay [7] deals with T3, AAV5. Described as above.
The target in assay [8] is T5, AAV2 (adeno-associated virus serotype 2 (AAV2), UniProt P03135 1-735).
T5 construct: also called adeno-associated virus serotype 2; AAV2 antigen
The assay is described as above.

The target in assay [9] is T4, AAV9. The description is as above.

Positions count from the first letter of the chain named.

B1: A4-014 (VHH)
VHH: VQLQESGGGLVQPGGSLRLSCAASGSRFSINSMGWYRQAPGKQRELVATVTRGGNTNYAGSVKGRFTISRDNAKNTVYLQMNSLRPEDTAVYYCHVDEVRESSWTTSNLWGQGTQVTVSS
For the molecule B1, the binding capacity in [1] amounted to 2.59e+13 VP; in assay [2], 3.83e+13 VP; in assay [3], 3.22e+13 VP; in [4], 4.3e+13 VP.

B2: A4-024 (VHH)
VHH: B1 VHH with R27N, S29R, S32T, N55S, G60D, A73P
Turning to B2, the binding capacity in assay [5] was found to be 6.09e+13 VP; in [6], 5.17e+13 VP; in assay [7] it was 4.8e+13 VP; in assay [8], 7.65e+13 VP; in [9], 6.5e+13 VP.
